Measurements from patent US9327008B2, “Cell-permeant peptide-based inhibitor of kinases” (Purdue Research Foundation, priority 2008, dated 2016).

How the values were obtained:
[1] = test system: 43 kinases; assay: Specificity profile against battery of 43 kinases (Millipore KinaseProfiler); type: biochemical, human
Description: (§1) A commercial radiometric assay service (Millipore, Billerica, Mass.) was used to test the specificity and potency of peptides containing a coupled transduction domain and therapeutic domain, hereinafter “complete peptides”). In these assays, if the kinase is not inhibited by an inhibitor peptide, a positively charged substrate is phosphorylated with a radiolabeled phosphate group from an ATP.
(§2) IC50 values for inhibitor peptides were determined using Millipore's IC50Profiler Express service. The IC50 value was estimated from a 10-point curve of one-half log dilutions. For peptides tested for specificity, the concentration of the peptides that inhibited approximately 95% of MK2 activity was chosen to profile against a battery of kinases related to MK2, cell viability, or human disease from MilliporeKinaseProfiler service. In both assays, compounds were supplied in dimethylsulfoxide (DMSO). Every kinase activity measurement was conducted in duplicate.
(§3) Therapeutic inhibitor peptides were assayed for activity against human kinases related to MK2, cell viability, or human disease. The assays were performed using concentrations of therapeutic inhibitor peptides that yielded 2% to 8% of normal MK2 activity. Error is reported as the standard deviation between 2 samples, and “c” is rat AMPK whereas all other kinases used are human kinases.

[2] = biological target: T1, PhKγ2 (Homo sapiens, UniProt P15735); assay: Millipore radiometric kinase activity assay, PhKγ2 (h); type: biochemical
T1 construct: purchased Millipore (radiometric assay service)
T1 sequence (P15735 1-406): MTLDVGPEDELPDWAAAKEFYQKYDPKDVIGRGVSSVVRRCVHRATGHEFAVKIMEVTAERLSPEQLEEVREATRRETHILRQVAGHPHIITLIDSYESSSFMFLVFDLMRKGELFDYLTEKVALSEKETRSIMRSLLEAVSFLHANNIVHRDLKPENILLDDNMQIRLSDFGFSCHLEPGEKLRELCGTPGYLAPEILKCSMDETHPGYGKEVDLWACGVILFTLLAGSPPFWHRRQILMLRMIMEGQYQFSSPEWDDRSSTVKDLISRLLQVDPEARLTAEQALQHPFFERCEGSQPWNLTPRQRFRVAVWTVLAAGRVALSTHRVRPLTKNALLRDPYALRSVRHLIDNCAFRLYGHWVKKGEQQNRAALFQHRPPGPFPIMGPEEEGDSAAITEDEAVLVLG
Description: as §1
(§4) In a final reaction volume of 25 μL, PhKγ2 (h) (5-10 mU) is incubated with 8 mM MOPS pH 7.0, 0.2 mM EDTA, 250 μM […] [SEQ ID NO: 52], 10 mM MgAcetate and [γ-^33P-ATP] (specific activity approx. 500 cpm/pmol, concentration as required). The reaction is initiated by the addition of the MgATP mix. After incubation for 40 minutes at room temperature, the reaction is stopped by the addition of 5 μL of a 3% phosphoric acid solution. 10 μL of the reaction is then spotted onto a P30 filtermat and washed three times for 5 minutes in 75 mM phosphoric acid and once in methanol prior to drying and scintillation counting.
as §2, §3

[3] = biological target: T2, Lck (Homo sapiens, UniProt P06239); assay: Millipore radiometric kinase activity assay, Lck (h); type: biochemical
T2 construct: purchased Millipore (assay service)
T2 sequence (P06239 whole entry): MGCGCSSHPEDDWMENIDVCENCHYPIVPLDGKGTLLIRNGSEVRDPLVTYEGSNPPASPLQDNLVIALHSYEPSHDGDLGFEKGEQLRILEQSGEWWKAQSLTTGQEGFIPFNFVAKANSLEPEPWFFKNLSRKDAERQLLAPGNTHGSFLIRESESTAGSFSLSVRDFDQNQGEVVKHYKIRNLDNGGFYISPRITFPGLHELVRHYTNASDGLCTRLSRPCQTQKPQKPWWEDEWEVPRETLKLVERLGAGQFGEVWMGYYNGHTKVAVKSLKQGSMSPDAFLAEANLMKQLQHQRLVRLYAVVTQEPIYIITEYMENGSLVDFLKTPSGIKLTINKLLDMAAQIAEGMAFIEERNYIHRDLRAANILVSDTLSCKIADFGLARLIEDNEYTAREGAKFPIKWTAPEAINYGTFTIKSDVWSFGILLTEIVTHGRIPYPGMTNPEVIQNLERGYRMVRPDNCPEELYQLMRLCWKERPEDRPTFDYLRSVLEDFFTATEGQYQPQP
Source text: A commercial radiometric assay service (Millipore, Billerica, Mass.) was used to test the specificity and potency of peptides containing a coupled transduction domain and therapeutic domain, hereinafter “complete peptides”). In these assays, if the kinase is not inhibited by an inhibitor peptide, a positively charged substrate is phosphorylated with a radiolabeled phosphate group from an ATP. […] The reaction is initiated by the addition of the MgATP mix. […] IC50 values for inhibitor peptides were determined using Millipore's IC50Profiler Express service. The IC50 value was estimated from a 10-point curve of one-half log dilutions. […] In both assays, compounds were supplied in dimethylsulfoxide (DMSO). Every kinase activity measurement was conducted in duplicate. Therapeutic inhibitor peptides were assayed for activity against human kinases related to MK2, cell viability, or human disease. […] Error is reported as the standard deviation between 2 samples, and “c” is rat AMPK whereas all other kinases used are human kinases.

[4] = biological target: T3, Syk (Homo sapiens, UniProt P43405); assay: Millipore radiometric kinase activity assay, Syk (h); type: biochemical
T3 construct: purchased Millipore (radiometric assay service)
Description: as §1
In a final reaction volume of 25 μL, Syk (h) (5-10 mU) is incubated with 50 mM Tris pH 7.5, 0.1 mM EGTA, 0.1 mM Na3VO4, 0.1% β-mercaptoethanol, 0.1 mg/mL poly(Glu, Tyr) 4:1, 10 mM MgAcetate and [γ-^33PATP] (specific activity approx. 500 cpm/pmol, concentration as required). The reaction is initiated by the addition of the MgATP mix. After incubation for 40 minutes at room temperature, the reaction is stopped by the addition of 5 μL of a 3% phosphoric acid solution. 10 μL of the reaction is then spotted onto a Filtermat A and washed three times for 5 minutes in 75 mM phosphoric acid and once in methanol prior to drying and scintillation counting.
as §2, §3

[5] = biological target: T4, Rsk2 (Homo sapiens, UniProt P51812); assay: Millipore radiometric kinase activity assay, Rsk2 (h); type: biochemical
T4 construct: purchased Millipore (radiometric assay service)
T4 sequence (P51812 whole entry): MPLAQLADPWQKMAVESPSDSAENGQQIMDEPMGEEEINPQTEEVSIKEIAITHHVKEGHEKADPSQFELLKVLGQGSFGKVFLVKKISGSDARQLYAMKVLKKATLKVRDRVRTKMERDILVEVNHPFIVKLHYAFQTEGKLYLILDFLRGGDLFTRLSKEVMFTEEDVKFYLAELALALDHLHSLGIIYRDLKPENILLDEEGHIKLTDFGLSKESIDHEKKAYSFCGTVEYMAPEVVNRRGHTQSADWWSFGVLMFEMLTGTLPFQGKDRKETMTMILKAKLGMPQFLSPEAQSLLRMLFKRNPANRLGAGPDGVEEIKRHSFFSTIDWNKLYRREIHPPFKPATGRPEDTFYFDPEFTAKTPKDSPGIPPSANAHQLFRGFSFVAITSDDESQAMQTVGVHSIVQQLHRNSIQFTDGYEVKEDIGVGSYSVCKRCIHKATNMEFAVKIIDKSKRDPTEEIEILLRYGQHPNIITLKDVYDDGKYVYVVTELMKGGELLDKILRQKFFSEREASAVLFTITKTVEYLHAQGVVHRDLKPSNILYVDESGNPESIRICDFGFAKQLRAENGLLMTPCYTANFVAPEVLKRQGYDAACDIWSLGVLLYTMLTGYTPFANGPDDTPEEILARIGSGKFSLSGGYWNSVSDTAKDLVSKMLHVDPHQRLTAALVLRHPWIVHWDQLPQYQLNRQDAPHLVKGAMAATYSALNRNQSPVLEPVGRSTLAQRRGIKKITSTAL
Description: as §1
as §4, with “μL, Rsk2” for “μL, PhKγ2”, “EDTA, 30” for “EDTA, 250”, “NO: 64],” for “NO: 52],”, “μL it” for “μL”, “10 μL,” for “10 μL”
as §2, §3

FAKLAARLYRKALARQLGVAA
Percentage of the 43 kinases Tested with less than 20% Activity ([1]; Concentration Tested 100 μM): 37%

KAFAKLAARLYRKALARQLGVAA
PhKγ2 Kinase Activity (%) (+SD %) ([2]; peptide 100 μM): 27 (3) %
Lck Kinase Activity (%) (+SD %) ([3]; peptide 100 μM): 847 (29) %
Syk Kinase Activity (%) (+SD %) ([4]; peptide 100 μM): 4 (4) %
Rsk2 Kinase Activity (%) (+SD %) ([5]; peptide 100 μM): 6 (1) %

WLRRIKAWLRRIKALNRQLGVAA
PhKγ2 Kinase Activity (%) (+SD %) ([2]; peptide 30 μM): 15 (0) %
PhKγ2 Kinase Activity (%) (+SD %) ([2]; peptide 100 μM): 20 (0) %
Percentage of the 43 kinases Tested with less than 20% Activity ([1]; Concentration Tested 30 μM): 47%
Lck Kinase Activity (%) (+SD %) ([3]; peptide 30 μM): 130 (1) %
Lck Kinase Activity (%) (+SD %) ([3]; peptide 100 μM): 493 (7) %
Syk Kinase Activity (%) (+SD %) ([4]; peptide 30 μM): 19 (3) %
Syk Kinase Activity (%) (+SD %) ([4]; peptide 100 μM): 38 (9) %
Rsk2 Kinase Activity (%) (+SD %) ([5]; peptide 30 μM): 14 (5) %
Rsk2 Kinase Activity (%) (+SD %) ([5]; peptide 100 μM): −1 (1) %
